Results published in article PMC10973363, “Insights into the modulation of bacterial NADase activity by phage proteins” (Nature Communications, 2024).

B1: tail tube protein (TTP) from phage SPR, His-tagged (natural protein)
chain: MKTVIQDTADVYFKRKSDGKLVFTAEAQTASFSQAISEEKLRGGIGNKPLYILKSEKEINLTVKNAFFDLEWLAMTQGETIQEETKVKVFDREHGLIVDDTNKVTLKGKPVSDVTFYNKKGLTYKIAVSTDGTYTIPTAFAAAKDKLTAVYQIEKVGRRLAIKASKFSERYEVEYRTIAYNPDTEEVYSDIYIQFPNVSPSGEFEMSLENGNALAPEIKFEALADTDTDEMAVVIEASRDENTAAPVEDTTGSTQSSDLGGTTE
notes: tail tube protein of phage SPR, WP_010328117; C-terminal portion aa 240-264 not built in the cryo-EM model of the tube; Cloned into a pET-derived vector with an N-terminal His tag; Alone it polymerises into a tube of hexameric rings (cryo-EM); also called His-tagged TTP; tagged TTP; source: E. coli Rosetta (DE3), purified (Ni-NTA, anion exchange, gel filtration); not shown: His, N-terminal, kept
B2: defense-associated sirtuin 2 (DSR2), full-length wild type (enzyme, Bacillus subtilis 29R, UniProt P0DXN8 1-1005, looked up)
chain: MVKVDLESKRYGEKLKEVFLMLDNNVVECIKEITESSRNGKLVFFVGAGVSTLSDYPQWWRLVDKYHEELYGSPKKGNYSSDEYLRIPQIFYNVKGEMAFDGILKDFFQVDKPTNPIHDKILAMNPAHVITTNYDNLIDTACWKRGKYFSVISAEEDVANATSSRYLLKVHGDFRKGFKGENVVLKEDDYLNYDQNYPLISNLMKTIIATHTIVFIGYGLGDYNINMLLNWVRKLQKDSFHKPFFIRTDPSPIENETLIYYENKGLRIIDAASLIDSNEYDYLERYSAVMDLLIESQENKFITKDDEVIDYIYGKISPLFALQYIRKIDLKHVFEYDYHFEVNGTVVRHKNKGFGYMERFFELKESCDERSKLSKKQYERFNALFNFFEKNGVICMAKDAGTLNTSIEINSLAYHGKYDVMKKFIEEQSVSIEDDYKKAFFLACLGRWEESYDLYSNIILNSIDESNGCVYYLSQINRYRIYQSITQAVTQFNGLGLLTFGRHYKPFTDEFLARIEREMTNFNIDDLFNGMPFEFQKKYKILEFLSDNQFLYDDTVKLFELTNKVRSEMSEGSYSFGMSSDIVVLLRLYDNLRFLYENCLWSVSFHEFHQYIRNSMSLLIEKAEYERTRDIDELGFSFFGKKSGFFMEYYDFVNISRHFKIDDIKNLERSCSIDKIRFGEQEKIEEYLVGIAEEITKQFSANGMNVVFYTQFISEAKAALYFAKYVKLSEEGLGKIVKALLFYFPERDLDIGKRYVWLERLTKCNELPKSIISIIDDFLVLQAEKHIDQNYSEVSSNGLYSRDYGALIKHFEKNFISKRLSEITLCLTQDKQKQIDFLFKLLPLLSTNAKSHLLSFKSVENINDLMNGIRIGLIDEFTPEHEELIIEYLETRKVNYIVEKEKGIQTFSSNDYMSTFGIWYFLEEINNSKMEEFIGMDDQYDFFVDPENFDYKKFIPSWLKNYNDKLLGKIAGNKHMKHHVIEVLKERVKNSNDKRYLEILMNYFI
notes: DSR2 from Bacillus subtilis 29R, WP_029317421; Cloned into the 2CT-10 vector (Addgene plasmid #55209) with His-MBP tag and TEV site; DSR2-TTP was cloned into a pET-derived vector with an N-terminal His tag; also called WT DSR2; full-length DSR2; source: E. coli Rosetta (DE3), purified (Ni-NTA, TEV cleavage, anion exchange, gel filtration); not shown: His, N-terminal, cleaved; MBP, N-terminal, …

Tests used:
[1] = biological target: T1, DSR2 CTD-only protein (ΔSIR2, aa 304-1005) (Bacillus subtilis 29R, UniProt P0DXN8 304-1005); test: pull-down; N-terminal His-tagged TTP or DSAD1 on Ni-NTA agarose beads, excess untagged DSR2 variants added, 1 h at 4 °C, 25 mM Tris-HCl pH 7.5, 300 mM NaCl, washes with 10 mM imidazole, SDS-PAGE with Coomassie staining; settings: both partners purified
T1 construct: DSR2 from Bacillus subtilis 29R, WP_029317421, C-terminal domain aa 304-1005; source: E. coli Rosetta (DE3), purified (Ni-NTA, TEV cleavage, anion exchange, gel filtration); not shown: His, N-terminal, cleaved; MBP, N-terminal, cleaved
T1 sequence (looked up): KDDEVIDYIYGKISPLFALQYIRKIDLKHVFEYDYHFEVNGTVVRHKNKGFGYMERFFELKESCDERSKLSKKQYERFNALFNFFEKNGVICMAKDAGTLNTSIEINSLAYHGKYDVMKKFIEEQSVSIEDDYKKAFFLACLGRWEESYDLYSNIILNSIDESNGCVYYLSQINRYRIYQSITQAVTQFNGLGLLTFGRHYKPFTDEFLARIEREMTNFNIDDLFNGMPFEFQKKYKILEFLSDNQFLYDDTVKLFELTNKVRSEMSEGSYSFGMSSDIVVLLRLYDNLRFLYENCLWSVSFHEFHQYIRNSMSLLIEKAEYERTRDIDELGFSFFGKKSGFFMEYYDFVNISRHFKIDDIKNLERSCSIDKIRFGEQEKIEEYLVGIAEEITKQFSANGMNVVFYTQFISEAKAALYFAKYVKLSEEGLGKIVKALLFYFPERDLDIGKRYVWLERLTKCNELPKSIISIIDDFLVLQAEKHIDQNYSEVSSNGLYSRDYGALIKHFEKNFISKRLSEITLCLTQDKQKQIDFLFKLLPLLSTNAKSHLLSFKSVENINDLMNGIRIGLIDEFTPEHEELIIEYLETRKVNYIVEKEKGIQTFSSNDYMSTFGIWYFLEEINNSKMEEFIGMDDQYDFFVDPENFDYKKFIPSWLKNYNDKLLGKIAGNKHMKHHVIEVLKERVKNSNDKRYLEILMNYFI

[2] = biological target: B2; test: as above; settings: both partners purified
[3] = biological target: the molecule itself; test: cryo-EM structure; protein complexes (co-expressed and co-purified) or TTP tube at 0.5 mg/ml on Quantifoil Au grids, Titan Krios 300 kV
[4] = biological target: T2, DSR anti-defense 1 (DSAD1), His-tagged (UniProt Q796A8 1-120); test: as above; settings: both partners purified
T2 construct: phage-encoded DSAD1, WP_004399562; aa 1-9 not built in the cryo-EM model; Cloned into a pET-derived vector with an N-terminal His tag; also called anti-DSR2 protein; His-tagged DSAD1; source: E. coli Rosetta (DE3), purified (Ni-NTA, anion exchange, gel filtration); not shown: His, N-terminal, kept
T2 sequence: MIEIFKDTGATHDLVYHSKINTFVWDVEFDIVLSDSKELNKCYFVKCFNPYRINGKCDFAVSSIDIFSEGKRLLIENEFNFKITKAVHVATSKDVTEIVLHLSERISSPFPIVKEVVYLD

[5] = biological target: B1; test: as above; settings: both partners purified
[6] = biological target: the molecule itself; test: native gel or EMSA; purified DSR2 at 1 mg/mL in gel-filtration buffer (25 mM Tris-HCl pH 7.5, 150 mM NaCl, 2 mM DTT) on a 5% native gel, 120 V, 40 min, 4 °C, Coomassie staining

| Binder | binding result [1] | binding result [2] | stoichiometry N [3] | stoichiometry N [4] [DSAD1 per DSR2 dimer] | stoichiometry N [5] [TTP per DSR2 tetramer] | stoichiometry N [6] |
| --- | --- | --- | --- | --- | --- | --- |
| B1 | binds | binds | 6 | – | – | – |
| B2 | – | – | – | 1 | 4 | 4 |
